The labels stand for the following.
B1: paxillin fragment residues G139-K277 (PaxLD2-LD4) (domain or fragment)
chain: MGSNLSELDRLLLELNAVQHNPPGFPADEANSSPPLPGALSPLYGVPETNSPLGGKAGPLTKEKPKRNGGRGLEDVRPSVESLLDELESSVPSPVPAITVNQGEMSSPQRVTSTQQQTRISASSATRELDELMASLSDFK
notes: initiation Met introduced before G139; paxillin residues G139-K277, holding the LD2, LD3 and LD4 repeats; Used 15N-labelled or unlabelled; also called recombinant paxillin (residues G139-K277 encompassing LD2-LD4); source: E. coli BL21(DE3), purified (NTA beads, HPLC)
B2: integrin α4 cytosolic tail (Lys968-Asp999) (domain or fragment)
chain: KAGFFKRQYKSILQEENRRDSWSYINSKSNDD
notes: Used 15N-labelled or unlabelled in the HSQC experiments; also called α4 CT; full-length α4 CT; source: E. coli BL21(DE3), KSI fusion from inclusion bodies, purified (Ni-NTA, cyanogen bromide cleavage, HPLC); not shown: His6, N-terminal, cleaved; ketosteroid isomerase (KSI), N-terminal, cleaved
B3: paxillin LD3-containing peptide (peptide)
peptide: VRPSVESLLDELESSVPSPV
notes: paxillin stretch holding the LD3 repeat; also called peptide-containing LD3; source: synthetic peptide, bought: GL Biochem (Shanghai), further purified by reverse phase HPLC
B4: paxillin LD4-containing peptide (peptide)
peptide: ATRELDELMASLSDFKFMAQ
notes: paxillin stretch holding the LD4 repeat; runs four residues (FMAQ) beyond K277, the end of PaxLD2-LD4; also called peptide-containing LD4; source: synthetic peptide, bought: GL Biochem (Shanghai), further purified by reverse phase HPLC

Conditions in all cases: both partners purified
The target of assay [1] is B2. As to the kind of experiment: NMR titration; 15N-1H HSQC of 15N-labelled α4 CT (100 µM) without and with unlabelled PaxLD2-LD4, molar ratios 1:1 and 1:2; 10 mM sodium phosphate, pH 6.5, 298 K.
Assay [2] concerns the target B1. As to the kind of experiment: NMR titration; 15N-1H HSQC of 15N-labelled PaxLD2-LD4 (200 µM) without and with unlabelled α4 CT, molar ratios 1:1 and 1:2; 10 mM sodium phosphate, pH 6.5, 298 K.
In assay [3] the target is B2. The assay can be described thus: NMR titration; 15N-1H HSQC of 15N-labelled α4 CT without and with unlabelled synthetic LD-containing peptides, ratio 1:4 (α4 CT:peptides).

As to B1, in assay [1], the binding result is “binds”.
For the molecule B2, the binding result in assay [2] is recorded as “binds”.
Consider B3, for which the binding result in assay [3] is “binds”.
Same read-out and setting: then B4, with “binds”.

These data come from article PMC3561355, “NMR Structure of Integrin α4 Cytosolic Tail and Its Interactions with Paxillin” (PLoS ONE, 2013).
